B1: Nuclear factor erythroid 2-related factor 2 (Homo sapiens), Q16236 (parent)
chain: MMDLELPPPGLPSQQDMDLIDILWRQDIDLGVSREVFDFSQRRKEYELEKQKKLEKERQEQLQKEQEKAFFAQLQLDEETGEFLPIQPAQHIQSETSGSANYSQVAHIPKSDALYFDDCMQLLAQTFPFVDDNEVSSATFQSLVPDIPGHIESPVFIATNQAQSPETSVAQVAPVDLDGMQQDIEQVWEELLSIPELQCLNIENDKLVETTMVPSPEAKLTEVDNYHFYSSIPSMEKEVGNCSPHFLNAFEDSFSSILSTEDPNQLTVNSLNSDATVNTDFGDEFYSAFIAEPSISNSMPSPATLSHSLSELLNGPIDVSDLSLCKAFNQNHPESTAEFNDSDSGISLNTSPSVASPEHSVESSSYGDTLLGLSDSEVEELDSAPGSVKQNGPKTPVHSSGDMVQPLSPSQGQSTHVHDAQCENTPEKELPVSPGHRKTPFTKDKHSSRLEAHLTRDELRAKALHIPFPVEKIINLPVVDFNEMMSKEQFNEAQLALIRDIRRRGKNKVAAQNCRKRKLENIVELEQDLDHLKDEKEKLLKEKGENDKSLHLLKKQLSTLYLEVFSMLRDEDGKPYSPSEYSLQQTRDGNVFLVPKSKKPDVKKN
partner: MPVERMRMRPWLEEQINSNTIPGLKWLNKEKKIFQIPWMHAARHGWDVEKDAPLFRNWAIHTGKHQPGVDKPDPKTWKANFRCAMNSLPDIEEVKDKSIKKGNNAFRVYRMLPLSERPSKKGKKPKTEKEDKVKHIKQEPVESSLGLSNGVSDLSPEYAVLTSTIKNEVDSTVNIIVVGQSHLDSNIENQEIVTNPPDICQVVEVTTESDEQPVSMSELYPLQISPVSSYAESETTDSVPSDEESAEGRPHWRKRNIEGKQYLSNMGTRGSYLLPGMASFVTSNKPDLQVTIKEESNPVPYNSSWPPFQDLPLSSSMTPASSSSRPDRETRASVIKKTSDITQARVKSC
B2: Nuclear factor erythroid 2-related factor 2 (Homo sapiens), Q16236 (parent)
chain: B1 chain
partner: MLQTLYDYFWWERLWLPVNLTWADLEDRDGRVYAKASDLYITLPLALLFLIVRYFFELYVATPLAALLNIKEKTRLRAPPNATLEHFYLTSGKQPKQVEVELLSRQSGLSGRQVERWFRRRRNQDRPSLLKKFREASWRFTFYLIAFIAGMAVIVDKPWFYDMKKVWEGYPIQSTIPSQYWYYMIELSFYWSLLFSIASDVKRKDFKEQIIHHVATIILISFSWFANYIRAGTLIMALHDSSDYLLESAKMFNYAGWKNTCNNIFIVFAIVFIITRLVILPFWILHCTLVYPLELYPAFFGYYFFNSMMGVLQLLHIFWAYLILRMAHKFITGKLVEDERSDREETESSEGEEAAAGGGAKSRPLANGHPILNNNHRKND
B3: Nuclear factor erythroid 2-related factor 2 (Homo sapiens), Q16236 (parent)
chain: B1 chain

Variants of: B1
Settings: with irf2_human IRF2, P14316

effect of a mutation on the interaction	Variant
decreasing interaction strength	Y576F
decreasing interaction strength	Y576E
decreasing interaction strength	T559D
decreasing interaction strength	S408A

Variants of: B2
Settings: with cers2_human CERS2, Q96G23

effect of a mutation on the interaction	Variant
increasing interaction strength	Y576E

Variants of: B3
Settings: with brpf3_human BRPF3, Q9ULD4
Chain of brpf3_human BRPF3, Q9ULD4 (Q9ULD4 whole entry): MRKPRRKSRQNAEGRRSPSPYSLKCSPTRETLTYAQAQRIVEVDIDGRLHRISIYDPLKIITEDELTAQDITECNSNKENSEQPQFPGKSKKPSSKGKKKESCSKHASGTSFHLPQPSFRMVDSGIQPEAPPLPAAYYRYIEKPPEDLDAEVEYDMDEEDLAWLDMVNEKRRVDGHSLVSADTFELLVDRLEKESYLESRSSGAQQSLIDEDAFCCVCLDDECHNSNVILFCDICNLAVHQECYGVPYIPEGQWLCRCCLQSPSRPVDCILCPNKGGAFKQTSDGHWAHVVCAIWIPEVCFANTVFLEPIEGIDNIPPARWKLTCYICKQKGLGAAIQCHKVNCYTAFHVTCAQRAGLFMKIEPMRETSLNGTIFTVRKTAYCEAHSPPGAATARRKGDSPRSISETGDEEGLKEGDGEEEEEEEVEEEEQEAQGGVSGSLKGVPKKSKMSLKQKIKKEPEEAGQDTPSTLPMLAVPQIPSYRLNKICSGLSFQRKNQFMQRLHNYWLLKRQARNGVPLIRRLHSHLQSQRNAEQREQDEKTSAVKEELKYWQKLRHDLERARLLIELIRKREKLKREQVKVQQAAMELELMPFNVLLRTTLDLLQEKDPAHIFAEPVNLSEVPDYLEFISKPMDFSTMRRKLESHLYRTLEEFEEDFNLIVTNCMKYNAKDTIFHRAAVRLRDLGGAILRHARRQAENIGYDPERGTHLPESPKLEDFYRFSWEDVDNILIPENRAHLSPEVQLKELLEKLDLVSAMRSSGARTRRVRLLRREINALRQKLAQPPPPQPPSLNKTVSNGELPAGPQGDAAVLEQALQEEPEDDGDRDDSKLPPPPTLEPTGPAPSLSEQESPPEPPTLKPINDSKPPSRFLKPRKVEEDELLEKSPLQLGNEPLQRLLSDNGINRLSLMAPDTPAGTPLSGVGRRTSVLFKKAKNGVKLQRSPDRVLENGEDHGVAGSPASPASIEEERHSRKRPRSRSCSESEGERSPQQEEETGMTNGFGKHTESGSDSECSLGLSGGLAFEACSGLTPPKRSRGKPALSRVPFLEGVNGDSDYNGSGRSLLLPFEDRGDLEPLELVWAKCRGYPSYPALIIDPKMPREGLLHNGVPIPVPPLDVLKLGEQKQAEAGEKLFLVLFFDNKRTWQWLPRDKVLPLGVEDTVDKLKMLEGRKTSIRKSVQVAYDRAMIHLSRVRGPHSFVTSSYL

Variant	effect of a mutation on the interaction
T559D	decreasing interaction strength
S408A	decreasing interaction strength

Now from value to variant:

effect of a mutation on the interaction	Variant
decreasing interaction strength	Y576E
decreasing interaction strength	Y576F

Variants of: B3
Settings: with ima1_human KPNA2, P52292

effect of a mutation on the interaction	Variant
decreasing interaction strength	T559D
decreasing interaction strength	Y576E

Variants of: B3
Settings: with tf65_human RELA

effect of a mutation on the interaction	Variant
increasing interaction strength	S40D

Variants of: B3
Settings: with apex1_human APEX1, P27695
Chain of apex1_human APEX1, P27695 (P27695 whole entry): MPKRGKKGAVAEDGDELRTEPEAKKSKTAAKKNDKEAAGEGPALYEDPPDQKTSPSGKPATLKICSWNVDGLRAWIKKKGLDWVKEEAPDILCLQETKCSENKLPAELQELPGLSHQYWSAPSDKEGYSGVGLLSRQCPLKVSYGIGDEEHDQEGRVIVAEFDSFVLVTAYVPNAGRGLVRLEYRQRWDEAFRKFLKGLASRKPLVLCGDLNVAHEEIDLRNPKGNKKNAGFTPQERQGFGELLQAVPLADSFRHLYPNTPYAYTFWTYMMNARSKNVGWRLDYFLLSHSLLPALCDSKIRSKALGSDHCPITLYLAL

effect of a mutation on the interaction	Variant
increasing interaction strength	S40D
